For one substance, OD490 results are on record in patent CN110563841A.

Assay [1] addresses 重组Grb2蛋白 (recombinant Grb2 protein) (UniProt P62993). Briefly: ELISA, recombinant Grb2 coated, antibody 100 ng/mL, goat anti-human IgG Fc-HRP secondary. On the technique in general: In an ELISA, binding on a coated surface is turned into a signal by an enzyme label.
The target is the same in assay [2]. Briefly: ELISA, recombinant Grb2 coated, antibody 100 ng/mL, goat anti-mouse IgG Fc-HRP secondary (does not detect human IgG).

Chain of UniProt P62993 (P62993 whole entry): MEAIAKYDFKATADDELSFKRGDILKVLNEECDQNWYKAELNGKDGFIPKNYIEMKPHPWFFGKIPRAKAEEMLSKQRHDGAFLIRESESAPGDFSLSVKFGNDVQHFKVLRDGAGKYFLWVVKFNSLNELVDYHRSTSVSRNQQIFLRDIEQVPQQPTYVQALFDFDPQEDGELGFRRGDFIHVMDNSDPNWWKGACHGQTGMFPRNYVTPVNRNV

For the substance “人IgG1 (irrelevant human IgG1 control antibody)”, the OD490 in assay [1] and in assay [2] was 0.073 in each case.
